Laboratory results taken from patent publication US20120230999A1 (ARIZONA BOARD OF REGENTS A BODY CORPORATE OF THE STATE OF …, published 2012).
The star is where a group is joined. DABCYL = CN(C)c1ccc(/N=N/c2ccc(C(=O)*)cc2)cc1; EDANS = O=S(=O)(O)c1cccc2c(NCCN*)cccc12

T1: internally quenched fluorogenic α-secretase substrate … (SMILES …)
T1 peptide: Ac-RE(EDANS)VHHQKLVFK(DABCYL)R-OH

B1: ASec-1A scFv (scFv)
scFv: DVLMETTQTPLTLSVTIGQPASISCKSSQSLLHTDGKTYLIWLLQRPGQSPKRLIYLVSKLDSGVPDRFTGSGSGTDFTLKISRVEAEDLGVYYCWQGTHFPQTFGGGTKLEIKRADAAPGGGGSGGGGSGGGGSGSESGGGLVKPGGSLKLSCAASGFTFSIYGMETFWFRQTPEKRLEWVATISGGDTYTYYPDSVKGRFTISRDNAKNNLFLQMETSSLRSEDTPLYFCGRNHQITMETWGQGTLVTVSA
B2: ASec-1B scFv (scFv)
scFv: DVLMETTQTPLTLSVTIGQPASISCKSSQSLLHTDGKTYLIWLLQRPGQSPKRLIYLVSKLDSGVPDRFTGSGSGTDFTLKISRVEAEDLGVYYCWQGTHFPQTFGGGTKLEIKRADAAPGGGGSGGGGSGGGGSGSESGGGLVKPGGSLKLSCAASGFAFSIYGMETSWFRQTPEKRLEWVATISGGDTYTYYPDSVKGRFTISRDNAKNNLFLQMETSSLRSEDTPLYFCGRSQKLHPWGQGLVTVSA

Experiments:
[1] = target: T1, internally quenched fluorogenic …; assay: cell-based or functional assay
[2] = target: T1, internally quenched fluorogenic …; assay: cell-based or functional assay

Binder	specificity constant (kcat/KM) relative to parent ASec-1 scFv [1]	kcat (per min), hydrolysis of α-secretase Aβ fluorogenic substrate [2]	kcat/Km (µM/min), hydrolysis of α-secretase Aβ fluorogenic substrate [2]
B1	5.6 fold	34.8 per min	58.1 µM/min
B2	2.8 fold	61 per min	40.4 µM/min
